Literature values, collected in paper PMC6952583 (Chembiochem : a European journal of chemical biology, 2019).

Biological target: ComD2 receptor (Streptococcus pneumoniae serotype 4, UniProt A0A0H2US84)
Conditions: read-out: ComD2 EC50; TIGR4pcomX::lacZ reporter strain; ref [20]

CSP2(15): truncated version of CSP2, starting scaffold (EMRISRIILDFLFLR)
EC50: 21.9 nM
